Experimental data reported in patent US20080216185.

Test system: phiC31 integrase (Streptomyces phage phiC31?)
Test: cell_activity
Settings: for activity: integration of attB plasmid

Row | Substance | activity (BG01v) | further results
1 | phiC31 attB (pB2H1-DEST derived plasmids) |  | activity (fold colonies over random integration) (114 vs 80 colonies with/without integrase, BG01v hESC): 1.4
2 | pseudo attP 13q32.3 (CLYBL intron 2) |  | activity (of 51 integrase-mediated clones, BG01v and SA002): 17 clones
3 | pseudo attP 21q21.1 | 2 clones | 
4 | pseudo attP 6p11.2 (PRIM2A intron 5) | 5 clones | 
5 | pseudo attP 2q35 | 2 clones | 
6 | pseudo attP 17q23.3 (TLK2/MRC2 intergenic) | 4 clones | 
7 | pseudo attP 9q31.2 |  | activity (BG01v and SA002): 3 clones
